Patent publication US6953794

Molecular target: truncated core tau unit terminating at Ala-390 (human) (UniProt P10636)
Assay: ELISA tau-tau binding assay; core tau unit in the solid phase, full-length tau in the aqueous phase

Sequence of truncated core tau unit terminating at Ala-390 (human) (P10636 614-707 limits assumed): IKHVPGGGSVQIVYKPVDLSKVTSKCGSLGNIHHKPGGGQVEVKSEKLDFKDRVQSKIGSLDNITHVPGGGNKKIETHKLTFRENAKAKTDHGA

Kd: 8 to 25 nM
Substance: normal full-length tau protein (the particular tau species/isoform tested)
